Results from the DeepSol protein solubility set.

test: soluble on expression in E. coli; label from the status in PepcDB or PDB records

Sequence | soluble on expression in E. coli
MDALNNKLYFIDSTKHKIFVEQIINGMHDWVRVIDINDNIIFVNESMAKALGKNVIGEKCYKAIGKSEPCENCTSRKAVFEGTIQAKEEIIGDRIFSVKSSPIRDENGQITAVVEVLRDITEMKKMQKKILEHNQKLQSELNMARRLQCSLLPKELPQDKIDFSYVYRPCEAIGGDFLDIFKIDDEHIGIYIADVSGHGVPASMLTVFLRSSINKKTLSPAEALNQLYKEFNRDYYDQELYITIFYAIIDTKNKNIIYSNAGHNASPVLFNHESHRFDILRIPGVPISDWVDNPEYTEKSISIEKGDRLFMYTDGIVELRNNKGEQFGEERLLNILLGEKMPPAMTLDRIIEAAMEFANIKNFNKIIDDITMALLEIL | soluble
MHHHHHHSSGMNWTVDIPIDQLPSLPPLPTDLRTRLDAALAKPAAQQPTWPADQALAMRTVLESVPPVTVPSEIVRLQEQLAQVAKGEAFLLQGGDCAETFMDNTEPHIRGNVRALLQMAVVLTYGASMPVVKVARIAGQYAKPRSADIDALGLRSYRGDMINGFAPDAAAREHDPSRLVRAYANASAAMNLVRALTSSGLASLHLVHDWNREFVRTSPAGARYEALATEIDRGLRFMSACGVADRNLQTAEIYASHEALVLDYERAMLRLSDGDDGEPQLFDLSAHTVWIGERTRQIDGAHIAFAQVIANPVGVKLGPNMTPELAVEYVERLDPHNKPGRLTLVSRMGNHKVRDLLPPIVEKVQATGHQVIWQCDPMHGNTHESSTGFKTRHFDRIVDEVQGFFEVHRALGTHPGGIHVEITGENVTECLGGAQDISETDLAGRYETACDPRLNTQQSLELAFLVAEMLRD | soluble
MTCTTEIDILKWTVRYCSSLAAHLLTPTRLFKYEIQQQSDLRNATENKTEKYISDDVGHCRHTYMQIR | soluble
MQPTRRSYSNPFKAQVIQECSQPGASIASVALSHNLNANLVHKWIRLHAQKSPTLPPAFIPLAMPPAGANPHPASPNICVEIQHTRGTVKVSWPTENAAACATFLRDLLRLEHHHHHH | not soluble
MNIAIIGGGIAGLATAHLLCDDHRVTLFEANDYLGGHTNTVDVSLDGTTLAVDTGFIVFNERTYPNFIRLLERLNVASRPSVMSFSVTSERNGLEYCATNLDTLFAQRRNFLNRPFWRMLREIVRFNREARELYDSHEMTLTLGDYLKNRGYSVTFVENFLVPMGAAIWSADPKRFAMFPAAAFVRFFTNHGILNVVDQPRWRVVAGGSREYVAPLARPFRDRVRLSTPVDRVRRFPDRVAVTTRGGETEYFDQVVLACHSDQALAMLTDPSDAERELLSAIPYQENDTVLHTDSRLLPGLPKARASWNCRIPRHERDGVFVTYWMNRLQSLATSTDFCVTLNGTEAIAPERIIRRITYHHPVYSPAAFEAQKRRDEISGTNRTWYCGAYWGYGFHEDGLNSALAVCRRFGRGLLEHHHHHH | not soluble
MEDYEGKFSPSELKLKGIHTSTTFWTVGMIVQQYKNGHLVIPKIQRGYVWNEEKARRFIMSLLQGFPIPPIFIIELSGKFYVVDGQQRIRTILWFLGEDNELLEKLGPLRVPIKELAENYNEYGVTNLSEAIIKKIIFGNHPKEFNYKYFTKDFRQYFESLSIPVQHISISSGKEYILTDIFLRINQGSVKLSAMELWRVYYGKDIEEYFHKLNELARYTVAKIYEVSNGKISRQKLERFRIDEFILTFDVLINGLITPPNYIPKDAKLGAVIFSQKTTLKKVKIFVLENRRKVFKNNKGELKKFLDYLEREYKEILKMITYVLGEFTFRRPTIGNECQYALIRPSGNDINEAVFLYEVAIFKLLKDNGHSELIYENKDFIKHVILTSLIENDELFSRSTSTFRSVANKLELAKLTYKKIITKEDNITKDNLKRLLYEKFRASRVSNPVCPYCKEPISDISVADLAHIRPLAFGGQTYIHNLTLAHSTCNRRFGVRDISQYINRC | soluble
MGISSSAPESLGFDTVLPPHLRQHSHPPAGISPKRFLCRDLWPAELPSPAVSSAVSGPTWPEGISAPVFGKQTHVPQRTGSQDCHSCDPTLPEWERKIPP | not soluble
MKSTEKKELSHFRLKLETYLNEHFPEMSGNNPFITARSDEALTAYCDAVAQGFSHPEAESMASEVLYQGLHFSRYDTLVSVLEREFEQELPSPLPERLAPILLKNKAIQSVFAKYDLTDDFEASPEYEHLYTELTGTIVLLIESNHLPTIGGGNDTV | soluble
MKVHNDFTLYWRVFPSGKKVVYYYAYDESGKRLMGRSTGETNLTSARVKCNKLLKEGELVPNKNHVPTFAEYAEGWWEWETCAYLKKRRKRYSLTQTYADNNKKNLKNHLLPFFGNMPMNKITKIEVEDFFDALIEKEYQNTSINGFYGTLKTMLIEAVERNIIPKDPTDKMGRLVNDRRAIKIITPEEFKKLFVGDWRRVWESDRLSYTANKLAALTGMRASEVVGLKGSFVYDEHIYLCMQYDDYGYRPTKTKDKHNIPLTSDMINELKELKRMNGDGFVFSLDGGATPICRNTVYKHFHRALRNIGITEDEISERHLHLHAWRHFFNTEMLKGGLTVTQAQAVTGHKSERMTEWYCHFDPTEFAKAKEVQEALLRPAQKKAAKEEKAGAKTSGNKDKAVKVIPFPRKENKTAGEETQASLILPLPIFKAPAGLRRELLFLPFQHFPFFFLNCRFVPFLSATGHGIFKAGMGESMEEYLTIFEVAELTKYTVGTLRKFVQKRRVAFHKWGRSLRFRRAEIELWMKMGCGKAVYLPADGDGQTKASAMEIGAES | not soluble
GMTARNILSYSYEEYVEKITAFHGYPAPGVLIGGFMVDLAVKNLPEGILYDAICETRTCLPDAVQLLTPCTFGNGWLTVLPMGLFAVSLYDKFTGEGVRVFLDVEKMGPWQEIRNWFLKLKTKKEQDSERLFKEIREAGPDILELRNVKLKPGFLEKKHKGKIVLCPQCREAYPAQDGELCLSCQGGSPYL | soluble
MAVVAHTEEDVKLLARLMRAEAEGDGRLGMLMVGNVGVNRVIADCLDFRGIRSIRQMVFQSPGGFEAVQKGYFYQRAREVDIGLARQVLRGWRYHPATNALWFFKPPEGQECPPQWFNQWNVGRYKSHCFFAPTPSDCPRVY | not soluble
EETLLNTKLETADLKWVTFPQVDGQWEELSGLDEEQHSVRTYEVCDVQRAPGQAHWLRTGWVPRRGAVHVYATLRFTMLECLSLPRAGRSCKETFTVFYYESDADTATALTPAWMENPYIKVDTVAAEHLTRKRPGAEATGKVNVKTLRLGPLSKAGFYLAFQDQGACMALLSLHLFYKK | soluble
MSNQKLSDGGACCSPLAREPLTEDWAGDLARMFKALGDPVRLRLLSLIASHAGGEACVCDISESFDLSQPTISHHLKVLRAAGLLDCERRGTWVYYWVIPSALQQLSAVLLTESGTAVPSPTCAEARA | not soluble
MAHHHHHHSLKILFVAAEGAPFAKTGGLGDVIGALPKSLVKNNNEVSVILPYYDVVDAKFGDQIEDLFYFFTNVGWRREYVGIKHIFRDGVDFYFIDNKHYFYRGQIYGEFDDGERFAYFQLAALEAMEKIQFIPDILHVHDYHTAMIPYLLKEKYHWINAYHGIKTVFTIHNIEFQGQFNPSMLGELFGVGDERYRDGTLRWNDCLNWMKAAVLYADRVTTVSPSYAKEIMTPEFGKGLDQIMRMESGKLSGVVNGIDTDLFDPETDPHLAVHFSKDDLSGKAKNKAALQERVGLPVREDVPLVGIVSRLTDQKGFQLVVDQLNTMMQLDLQIVLLGTGYADFENAFAWFGHAYPDKMSANITFDLELAQQIYAASDIFLMPSAFEPCGLSQMMAMRYGTLPLVHEVGGLRDTVIPYNEFEKTGTGFGFQDFSGYWLTKTLEAALDVYYNRKEDWKILQKNAMTTDFSWDTASQSYEHLYKELAEG | soluble
MTTTGIIAEFNPFHNGHKYLLDQAHGLKIVAMSGNFVQRGEPAIIDKWTRAQMALENGADLVVELPFLVAVQSADYFASGAVDILAKLGIDTLAFGTETALDYNGLSTIYGKMAEQMSEFLTTLPEKLSYPQKTQLMWEKFAGVQFTGDTPNHILALAYAKACAGRNIRLRPIQRRGADYHSTEKTVAYASATSLRHHRQDPAFVAKSMPNANLFQTSPQVTWEDYFTLLQYQVLTQPDLTQLFQVNEELAIRIKKAIRQVTSFDQLVETVATKRYTKARVRRILIYILIGARETSLPQDVHILGFTAAGRTHLSHIKNKTRIISRIGSQPWDALTQQADQVYQLGNPKIAEQTWGRVPI | not soluble
MSLKALIFDMDGVLVDSMPFHAAAWKKAFLEMGMEIQDEDIYAIEGSNPRNGLPLLIRKARKEPEDFDFEAITSIYRQEFNRIFKLKAFDGMKECLEFLKSRFLLSVVSGSDRLIVNGIVDQLFPGIFDTVVTGDDVLNSKPDPDPFLKAVELLNVGKEECVVIENAVLGVEAAKKADIYCIGVPTYVKPSELDRADLVVGNHQKLMEHLLSLEPLFSPEFIPGRREGHHHHHH | soluble
MSTQNYPATGRLAEPEYGTLLVKNVKIYGEGEPVNVLITDGVITDTHAGDVKADREVDGQGGVLLPGLVDIHVHLREPGREDTETIATGSAAAAKGGFTAVFTMANTMPVMDQPIIAESVWHKGQDIGLCDVHPVGSITKGLEGKEITEFGMMAHSQAKVRMFSDDGKCVDNPLIMRRAVEYARGTDVLLAQHCEDPRLTDGAVAHEGAMAAKLGLGGWPRVAEESIVARDAILARDYGGRMHICHASTQGTVELVKWAKEHEIPLTAEVTPHHLLLTDERLATYDGVNRVNPPLRENSDILALRDALLNGTIDCVATDHAPHGSEDKCCEFEHAKPGMLGLETSLAVVAAVFVETGLADWRFVAKVMSERPAEIVKLPGHGRPIAVGEPANLTIVDPGAKWTASGEKMASKATNTPYEGMEFNARVTTTILRGRLTCVDGEPTQARA | not soluble
PTAGADTIEYCVTHSESKALIGGKLDDPAATQQVIDAMPELISIALPYDSAPQCQYQFNALIADAVPSEERPQHYDDKLMSLVYTSGTSGLPKGAMLTYGAFSWSVQQLINHIGIQANDRLFSYLPLAHITER | not soluble
MEWAMNEHHQPFEEIRHYGTEGQEFWSARELAPLLDYRDWRNFQKVLARATQACEASNQAASDHFVETTKMVVLGSGAQRELEDVHLSRYACYLVVQNGDPAKPVIAAGQTYFAIQTRRQELADDEAFKQLREDEKRLFLRNELKEHNKQLVEAAQQAAVATATDFAIFQNHGYQGLYGGLDQKAIHQLKGLKKSQKILDHMGSTELAANLFRATQTEEKLKRDGVNSKQQANTTHFDVGSKVRQTIQELGGTMPEELPTPQVSIKQLENSVKITEKK | not soluble
KMFFKVIDTLSDNYEKEMLLLEAEAKEQYYQELEKSSREVRKIKHDLKNMLLAICGKAKKQNEISEEIYKIIKELDESDKKIYTSNVVINTIINHKISQAKKLEIKTDVNIKVSKAIHIDYKDAGILLGNILDNAIEACEKIKKKERWIKIDMLHNKNTLFIEVCNSKGKELTNISKSSKSDAHNHGIGISSIKAITKKYDGYVEFVDKGEEFEVVVNLYGMSF | not soluble
MRGLLILLLSLICLATPVLAQPVAAEQPLPDIRQRGFVYCVSGILNTFNPQMASSGLTVDTLAAQLYDRLLDVDPYTYRLIPELAESWQVLDNGATYRFHLRKDVPFQTTDWFTPTRMMNADDVVFSFQRVFDSKHPYHKVNGGEYPYFDSLQFASAVKSVKKLDDYTVEFKLKAPDASFLWHLATHYAPVLSSEYADVLTQKGKEEQIDREPVGTGPFLLDEYRSGQYIRLFRNSHYWKGVPRMPQVVIDLGVGGTGRLSKLLTGECDVLAYPAASQLSILRDDPPRLRLTLRPGMNVAYLAFNTRKPPLSDQRVRQAIALSINNQRLMQSIYYGTAETAASILPRASWAYDNQAQVTEYNPEKAKEILKDLGITQLQLNLWVPTASQSYNPSPLKTAELIQADLAQVGISVTIVPVEGRFQEARLMEMNHDLTLSGWSTDSNDPDSFFRPLLSCAAIRSQTNYAHWCDPAFDELLQKALRSQQLSERIEYYQQAQRILEQQLPLLPLASSLRLQAYRYDIKGLVLSPFGNSSFAGVYRESDEGKTP | not soluble
